# Data published in article PMC9040800.
# Test system: DctD2 D57Q (d-DctD2 mimic) (Vibrio vulnificus)
# Test: EMSA
# Conditions: EMSA: 50 mM Tris-HCl pH 8.0, 20 mM KCl, 50 mM MgCl2 (so in the source), 100 mM NaCl; approx. 50 nM 32P-labeled probe; 6% native PAGE; temperature not stated
substance,measurement,value
EPS-II cluster regulatory region probe (480 bp),binding,> 700 nM
